# Experimental data: publication PMC11662938, “Single-molecule visualization of sequence-specific RNA binding by a designer PPR protein”
# T1: dPPR10-C2 (synthetic construct (designed consensus …, Q96C;Q376C))
# T1 chain: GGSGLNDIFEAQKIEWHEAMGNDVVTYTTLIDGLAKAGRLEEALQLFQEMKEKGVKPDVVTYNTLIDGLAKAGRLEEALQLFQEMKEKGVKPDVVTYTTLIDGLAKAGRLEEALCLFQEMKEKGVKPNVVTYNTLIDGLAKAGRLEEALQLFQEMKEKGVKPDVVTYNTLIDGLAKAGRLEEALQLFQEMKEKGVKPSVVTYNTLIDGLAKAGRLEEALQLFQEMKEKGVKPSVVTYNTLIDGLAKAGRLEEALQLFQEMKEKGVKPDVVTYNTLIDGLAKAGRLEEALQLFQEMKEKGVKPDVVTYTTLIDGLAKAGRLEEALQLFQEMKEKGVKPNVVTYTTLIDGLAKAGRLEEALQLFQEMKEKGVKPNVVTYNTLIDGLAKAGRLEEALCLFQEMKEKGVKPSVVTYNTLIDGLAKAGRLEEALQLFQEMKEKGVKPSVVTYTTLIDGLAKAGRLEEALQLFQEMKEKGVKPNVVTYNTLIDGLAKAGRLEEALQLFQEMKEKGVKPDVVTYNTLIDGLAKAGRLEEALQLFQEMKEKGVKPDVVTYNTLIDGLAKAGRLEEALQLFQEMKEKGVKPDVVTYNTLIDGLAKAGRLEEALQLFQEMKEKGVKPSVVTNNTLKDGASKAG
# T2: dPPR10 (synthetic construct (designed consensus …))
# T2 chain: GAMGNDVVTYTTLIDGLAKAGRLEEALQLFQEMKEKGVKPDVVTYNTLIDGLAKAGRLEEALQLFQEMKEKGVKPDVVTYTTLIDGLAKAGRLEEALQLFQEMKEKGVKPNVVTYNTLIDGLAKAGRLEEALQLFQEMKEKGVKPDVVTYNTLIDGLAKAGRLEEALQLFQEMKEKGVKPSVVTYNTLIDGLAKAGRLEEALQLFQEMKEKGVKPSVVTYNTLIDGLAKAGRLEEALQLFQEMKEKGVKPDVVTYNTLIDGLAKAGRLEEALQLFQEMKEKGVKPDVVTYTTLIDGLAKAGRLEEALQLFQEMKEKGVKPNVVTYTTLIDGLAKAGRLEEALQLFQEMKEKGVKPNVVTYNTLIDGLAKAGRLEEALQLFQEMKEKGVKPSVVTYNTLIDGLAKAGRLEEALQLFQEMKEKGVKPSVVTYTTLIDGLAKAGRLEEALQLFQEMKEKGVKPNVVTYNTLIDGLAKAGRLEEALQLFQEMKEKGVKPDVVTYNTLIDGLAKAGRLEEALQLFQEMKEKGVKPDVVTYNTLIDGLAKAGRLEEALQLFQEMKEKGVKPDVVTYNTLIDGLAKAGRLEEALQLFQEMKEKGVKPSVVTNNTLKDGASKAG
# B1: RNAdual-OH (delta2) (ssRNA)
# RNA: CAUUCCAACCCCCAAAGUGUAUCCUUAACCAUUUCUCUCACCAACCCCCAAAG
# What was measured:
# dPPR10-C2 [1] = biological target: T1, dPPR10-C2; test: ensemble FRET; SPR: 30 mM Tris pH 7.6, 40 mM KCl, 5 mM MgCl2, 0.5 mM DTT, 0.25 mM EDTA, 0.01% P20, 20 C; ensemble FRET and MST: 100 mM Tris-HCl pH 8.0, 100 mM KCl; smFRET buffer not in material; details: protein: recombinant; tags: N-terminal Avi-tag, biotinylated; Cy3/AF647 maleimide on Cys for FRET
# dPPR10-C2 [2] = biological target: T1, dPPR10-C2; test: smFRET; 1 uM RNA; mean binding time 30.0 s; SPR: 30 mM Tris pH 7.6, 40 mM KCl, 5 mM MgCl2, 0.5 mM DTT, 0.25 mM EDTA, 0.01% P20, 20 C; ensemble FRET and MST: 100 mM Tris-HCl pH 8.0, 100 mM KCl; smFRET buffer not in material; details: protein: recombinant; tags: N-terminal Avi-tag, biotinylated; Cy3/AF647 maleimide on Cys for FRET; no predicted secondary structure
# dPPR10-C2 [3] = biological target: T1, dPPR10-C2; test: smFRET; 1 uM RNA; rare transitions; SPR: 30 mM Tris pH 7.6, 40 mM KCl, 5 mM MgCl2, 0.5 mM DTT, 0.25 mM EDTA, 0.01% P20, 20 C; ensemble FRET and MST: 100 mM Tris-HCl pH 8.0, 100 mM KCl; smFRET buffer not in material; details: protein: recombinant; tags: N-terminal Avi-tag, biotinylated; Cy3/AF647 maleimide on Cys for FRET
# dPPR10-C2 [4] = biological target: T1, dPPR10-C2; test: smFRET; 1 uM RNA; SPR: 30 mM Tris pH 7.6, 40 mM KCl, 5 mM MgCl2, 0.5 mM DTT, 0.25 mM EDTA, 0.01% P20, 20 C; ensemble FRET and MST: 100 mM Tris-HCl pH 8.0, 100 mM KCl; smFRET buffer not in material; details: protein: recombinant; tags: N-terminal Avi-tag, biotinylated; Cy3/AF647 maleimide on Cys for FRET
# dPPR10-C2 [5] = biological target: T1, dPPR10-C2; test: competition; 100-fold excess over RNAcognate; smFRET; SPR: 30 mM Tris pH 7.6, 40 mM KCl, 5 mM MgCl2, 0.5 mM DTT, 0.25 mM EDTA, 0.01% P20, 20 C; ensemble FRET and MST: 100 mM Tris-HCl pH 8.0, 100 mM KCl; smFRET buffer not in material; details: protein: recombinant; tags: N-terminal Avi-tag, biotinylated; Cy3/AF647 maleimide on Cys for FRET
# dPPR10 [6] = biological target: T2, dPPR10; test: MST; Results value; Fig S4D legend gives 9.7 nM; SPR: 30 mM Tris pH 7.6, 40 mM KCl, 5 mM MgCl2, 0.5 mM DTT, 0.25 mM EDTA, 0.01% P20, 20 C; ensemble FRET and MST: 100 mM Tris-HCl pH 8.0, 100 mM KCl; smFRET buffer not in material; details: protein: recombinant; tags: Trx-His6-TEV (pETM20) cleaved; GAM remnant; label: 5' 6-FAM (FITC in Results)
# dPPR10 [7] = biological target: T2, dPPR10; test: MST; Fig S4D legend value, conflicts with 4 nM in text; legend says labelled dPPR10; SPR: 30 mM Tris pH 7.6, 40 mM KCl, 5 mM MgCl2, 0.5 mM DTT, 0.25 mM EDTA, 0.01% P20, 20 C; ensemble FRET and MST: 100 mM Tris-HCl pH 8.0, 100 mM KCl; smFRET buffer not in material; details: protein: recombinant; tags: Trx-His6-TEV (pETM20) cleaved; GAM remnant; label: 5' 6-FAM (FITC in Results)
# dPPR10-C2 [8] = biological target: T1, dPPR10-C2; test: smFRET; 1 uM RNA; mean binding time 43.4 s; SPR: 30 mM Tris pH 7.6, 40 mM KCl, 5 mM MgCl2, 0.5 mM DTT, 0.25 mM EDTA, 0.01% P20, 20 C; ensemble FRET and MST: 100 mM Tris-HCl pH 8.0, 100 mM KCl; smFRET buffer not in material; details: protein: recombinant; tags: N-terminal Avi-tag, biotinylated; Cy3/AF647 maleimide on Cys for FRET; 3' extension, predicted secondary structure
# dPPR10 [9] = biological target: T2, dPPR10; test: MST; SPR: 30 mM Tris pH 7.6, 40 mM KCl, 5 mM MgCl2, 0.5 mM DTT, 0.25 mM EDTA, 0.01% P20, 20 C; ensemble FRET and MST: 100 mM Tris-HCl pH 8.0, 100 mM KCl; smFRET buffer not in material; details: protein: recombinant; tags: Trx-His6-TEV (pETM20) cleaved; GAM remnant; label: 5' 6-FAM
# dPPR10-C2 [10] = biological target: T1, dPPR10-C2; test: smFRET; 1 uM RNA; mean binding time 41.3 s vs 10.6 s cognate; SPR: 30 mM Tris pH 7.6, 40 mM KCl, 5 mM MgCl2, 0.5 mM DTT, 0.25 mM EDTA, 0.01% P20, 20 C; ensemble FRET and MST: 100 mM Tris-HCl pH 8.0, 100 mM KCl; smFRET buffer not in material; details: protein: recombinant; tags: N-terminal Avi-tag, biotinylated; Cy3/AF647 maleimide on Cys for FRET; 5' extension, predicted secondary structure
binder,measurement,setting,value
UGUAUCCUUAACCAUUUCU (ssRNA) [RNAcognate],Kd,dPPR10-C2 [1],1.2 ± 0.2 nM
B1,binding result,dPPR10-C2 [2],binds
"UGUAUCCUAUACCAUUUCU (ssRNA) [RNA U9A,A10U]",binding result,dPPR10-C2 [3],no binding
CCAUUUCU (ssRNA) [RNA12-19],binding result,dPPR10-C2 [4],no binding
UCACAGGAACCGGCAAAGU (ssRNA) [RNAanti-cognate],binding result,dPPR10-C2 [5],no binding
UGUAUCCUUAACCAUUUCU (ssRNA) [RNAcognate 5'-FAM],Kd,dPPR10 [6],4 nM
same,Kd,dPPR10 [7],9.7 ± 1.8 nM
UGUAUCCUUAAC (ssRNA) [RNA1-12],binding result,dPPR10-C2 [4],binds
UGUAUCCUUAACCAUUUCUCACAGGAACCGGCAAAG (ssRNA) [RNA3'-OH],binding result,dPPR10-C2 [8],binds
UGUAUCCUUA (ssRNA) [RNA1-10],binding result,dPPR10-C2 [4],no binding
UCACAGGAACCGGCAAAGU (ssRNA) [RNAanti-cognate 5'-FAM],binding result,dPPR10 [9],no binding
CACAGGAACCGGCAAAGUGUAUCCUUAACCAUUUCU (ssRNA) [RNA5'-OH],binding result,dPPR10-C2 [10],binds
